Reference: US20210403565A1 (BIOATLA, published 2021)
Where a chain is given by its changes, count along the chain named. Blank lines part the entries; values can stand above or below the binder they belong to.

Columns and labels:
[1] = biological target: T1, recombinant human CTLA4 extracellular domain (human, UniProt P16410 36-161); assay: ELISA, wells coated with human CTLA4, assay pH 6.0; lot 6972 without test buffer; same column repeated in FIG. 9B and FIG. 9C; unit from the axis Log[ng/mL]
T1 construct: extracellular domain; also called huCTLA-4
T1 sequence (looked up): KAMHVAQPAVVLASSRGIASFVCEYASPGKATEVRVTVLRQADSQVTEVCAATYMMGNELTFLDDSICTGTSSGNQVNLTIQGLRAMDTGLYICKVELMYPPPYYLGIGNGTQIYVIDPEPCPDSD
Description: (§1) Both ELISA and FACS analysis were used to measure the binding activity. […] The amount of bound antibodies was quantified using anti-human IgG antibody conjugated to HRP. The absorbance at 450 nm in each measurement was proportional to the amount of antibodies bound. […] EC50 value (in ng/mL) for binding to human CTLA4 was determined by absorbance at 450 nm against antibody concentration with Prism variable slope of four-parameter dose-response curve, which was calculated using the nonlinear fit (variable slope, four parameters) model built into GraphPad Prism software (version 7.03). The buffers tested included His buffer (His), Tris buffer (Tris), Glutamine buffer (Glu) and no buffer.

[2] = biological target: T1, recombinant human CTLA4 extracellular …; assay: ELISA, immobilised huCTLA-4, table head pH 7.0 (text: pH 7.4), Jun. 29, 2017
[3] = biological target: T1, recombinant human CTLA4 extracellular …; assay: ELISA, wells coated with human CTLA4, assay pH 7.4; lot 6972 in His buffer, T2W; unit from the axis Log[ng/mL]
Description: as §1

[4] = biological target: T1, recombinant human CTLA4 extracellular …; assay: ELISA, wells coated with human CTLA4, assay pH 6.0; lot 6972 in Tris buffer, T2W; unit from the axis Log[ng/mL]
Description: as §1

[5] = biological target: T1, recombinant human CTLA4 extracellular …; assay: ELISA, wells coated with human CTLA4, assay pH 6.0; lot 6972 in Glu buffer, T2W; unit from the axis Log[ng/mL]
Description: as §1

[6] = biological target: T2, human CTLA4 expressed on the cell surface of CHO cells (human, UniProt P16410 36-223); assay: FACS, cells expressing human CTLA4, assay pH 7.4, MFI; lot 6972 control without test buffer; same column repeated in FIG. 10B and FIG. 10C; unit from the axis Log[ng/mL]
T2 construct: whole, on cells; also called CHO-huCTLA4; huCTLA4
T2 sequence (looked up): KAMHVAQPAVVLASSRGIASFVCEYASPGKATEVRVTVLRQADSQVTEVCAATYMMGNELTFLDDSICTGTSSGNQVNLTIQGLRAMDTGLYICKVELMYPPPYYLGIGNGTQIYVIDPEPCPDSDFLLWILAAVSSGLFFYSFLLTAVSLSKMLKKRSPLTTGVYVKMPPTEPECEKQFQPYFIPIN
Description: (§2) The amount of bound antibodies was quantified using anti-human IgG antibody conjugated to fluorophores. The MFI in each reaction was proportional to the amount of antibodies bound. The EC₅₀ value (in ng/mL) for binding to human CTLA4 on cells was determined by MFI of the singlets population against antibody concentration with a Prism variable slope of four-parameter dose-response curve, which was calculated using the nonlinear fit (variable slope, four parameters) model built into GraphPad Prism software (version 7.03).

[7] = biological target: T1, recombinant human CTLA4 extracellular …; assay: ELISA, immobilised huCTLA-4, table head pH 7.0 (text: pH 7.4), Jun. 27, 2017
[8] = biological target: T1, recombinant human CTLA4 extracellular …; assay: ELISA, wells coated with human CTLA4, assay pH 6.0; lot 6972 in His buffer, T2W; unit from the axis Log[ng/mL]
Description: as §1

[9] = biological target: T3, cynomolgus CTLA4 expressed on the cell surface of CHO cells (cynomolgus, UniProt G7PL88 36-223); assay: FACS saturation, CHO-cynoCTLA-4, pH 7.4, MFI, titration up to about log 6.5; reaches about 330000 against about 700000 for Ipi Analogue; no unit in the table, unit from the axis Log Antibodies [ng/ml]
T3 construct: whole, on cells; also called CHO-cynoCTLA4
T3 sequence: T2 sequence (looked up) with S14N, I18T, L106M
Description: The amount of antibodies bound on the cells was quantified using anti-human IgG antibody conjugated to fluorophores. EC₅₀ values at pH 6.0 and 7.4 for binding to cells were calculated using the nonlinear fit (variable slope, four parameters) model built into GraphPad Prism software (version 7.03). The expression levels of human CTLA4 or cynomolgus CTLA4 on the surface of the CHO cells were determined using a BD QuantiBRITE™ PE kit.
Finally, saturations of the antibodies on the CHO cells expressing human or cynomolgus CTLA4 at pH 7.4 were also measured by FACS (FIGS. 8A-8B).

[10] = biological target: T1, recombinant human CTLA4 extracellular …; assay: ELISA, wells coated with human CTLA4, assay pH 7.4; lot 6978 in Glu buffer, T0; curve still rising at log 3 (OD450 at most about 0.3), no plateau; unit from the axis Log[ng/mL]
Description: as §1

[11] = biological target: T2, human CTLA4 expressed on the cell …; assay: FACS, cells expressing human CTLA4, assay pH 6.0, MFI; lot 6978 control without test buffer; same column repeated in FIG. 10E and FIG. 10F; unit from the axis Log[ng/mL]
Description: as §2

[12] = biological target: T2, human CTLA4 expressed on the cell …; assay: FACS, cells expressing human CTLA4, assay pH 6.0, MFI; lot 6978 in His buffer, T2W; unit from the axis Log[ng/mL]
Description: as §2

EC50 [1]: 0.00626 µg/mL | EC50 [2]: 0.0934 µg/mL | EC50 [3]: 0.0758 µg/mL | EC50 [4]: 0.0101 µg/mL | EC50 [5]: 0.00266 µg/mL | EC50 [6]: 0.428 µg/mL | EC50 [7]: 0.0358 µg/mL | EC50 [8]: 0.00704 µg/mL | EC50 [9]: 13 µg/mL
B1: BA-087-05-19 (antibody, V domains shown)
VH: EVQLVESGGGLVQPGGSLRLSCAASGFTFSHYTMHWVRQAPGKGLEWVSFISYDGNNKYYADSVKGRFTISRDNSKNTLYLQMNSLRAEDTAVYYCARTGWLGPFDYWGQGTLVTVSS
VL: AIQLTQSPSSLSASVGDRVTITCRASQYVGSSYLAWYLQKPGQSPQLLIYGAFSRATGIPARFSGSGSGTEFTLTISSLQSEDFAVYYCQQDGSSPWTFGQGTKVEIK
notes: Detected with anti-human IgG and a molecular weight of 146 kDa was used in SPR, so it was tested as a whole IgG; also called BA-087-05-019; BA-087-05-19 (# 6972)

EC50 [10]: 1.19 µg/mL | EC50 [11]: 0.158 µg/mL | EC50 [12]: 0.145 µg/mL
B2: BA-087-08-32 (antibody, V domains shown)
VH: EVQLVQSGAEVKKPGATVKISCKVSGFTFSHYTMHWIRQSPSRGLEWLGFISYDGNYKYYADSVKGRFTISRDNAKNSLYLQMNSLRAEDTAVYYCARTGWLGPFDYWGQGTLVTVSS
VL: EIVMTQSPATLSVSPGERATLSCRASQSVGSSYLAWYQQKPGKAPKLLIYGAFSRATGVPSRFSGSGSGTDFTLTISSLQPEDFATYYCQQDGSSPWTFGQGTKVEIK
notes: Detected with anti-human IgG and a molecular weight of 146 kDa was used in SPR, so it was tested as a whole IgG; also called BA-087-08-032; BA-087-08-32 (# 6978)
